Measured values as given in the supplement of paper PMC10567573.
± gives the standard deviation.

Assay: protein stability index of a GFP-peptide fusion (GPS, HEK-293T) (PSI 1-6); higher = more stable
[1] = treatment: DMSO, c terminus: native
[2] = treatment: MLN4924 1 uM, 8 h, c terminus: native
[3] = treatment: DMSO, c terminus: a fixed tail appended
[4] = treatment: MLN4924 1 uM, 8 h, c terminus: a fixed tail appended
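Further: 24-mer peptide tiles fused after GFP, lentivirally expressed, FACS-sorted into six equal bins by GFP/DsRed ratio, decoded by Illumina sequencing, PSI is the read-weighted mean bin number.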

| Sequence | protein stability index [1] | protein stability index [2] | protein stability index [3] | protein stability index [4] |
| --- | --- | --- | --- | --- |
| GLMTQSSLETHHYVDCGGNSTAI [TMEM106C] | 3.18 ± 0.074 | 3.6 ± 0.13 |  |  |
| GLQRNLLVENIIDIYKQECSSRPL [TRIM63] |  |  | 2.71 ± 0.31 | 2.87 ± 0.19 |
| GMDDFLGVYSMPAGTKVFEVPEMS [TLE6] |  |  | 3.08 ± 0.23 | 3.15 ± 0.25 |
| GNIIAHASTTRLYLRKGRGETRIC [RAD51] |  |  | 3.11 ± 0.44 | 3.16 ± 0.34 |
| GNMANLSLHDHDGSSGASDQDTLA [DVL3] |  |  | 5.42 ± 0.12 | 5.3 ± 0.41 |
| GPLPQSFDKEWVAKQTKRMLDMKV [COX4I1] |  |  | 3.86 ± 0.15 | 3.86 ± 0.31 |
| GPRVGEALVSHPEVPLISFTGSQP [ALDH8A1] |  |  | 3.77 ± 0.34 | 4.09 ± 0.31 |
| GPVPGTPGLPGSTGNPKSEEPEVP [SPNS1] |  |  | 5.55 ± 0.2 | 5.3 ± 0.34 |
| GQFVFARDAKAAMAGRLMIRKLVA [AASDHPPT] |  |  | 2.08 ± 0.43 | 2.02 ± 0.46 |
| GQINVVKHLLNLGVEIDEINVYGN [ANKRD44] |  |  | 2.32 ± 0.46 | 2.29 ± 0.3 |
| GREDEDGWETRGDRKARKPLVEKK [HES6] |  |  | 5.4 ± 0.14 | 5.34 ± 0.37 |
| GRRATLQRLVEALEENELTSLAED [TRADD] |  |  | 4.54 ± 0.19 | 4.43 ± 0.14 |
| GSAAPGSPLAADPACLGQPHTPGK [FOXJ1] |  |  | 5.25 ± 0.29 | 5.4 ± 0.13 |
| GSCSTEVEKETQEKMTILQTYFRQ [ATP6V1G1] |  |  | 2.5 ± 0.25 | 2.62 ± 0.3 |
| GSGFGGGYGGGLGAGFGGGLGAGF [KRT16] |  |  | 2.27 ± 0.25 | 2.54 ± 0.67 |
| GSKKKFDKCMVCGGDGSGCSKQSG [ADAMTS4] |  |  | 4.18 ± 0.4 | 4.02 ± 0.34 |
| GSLPGPGQTSGAREPPQAVSIKEA [VENTX] |  |  | 5.01 ± 0.41 | 5.52 ± 0.2 |
| GTFQVNFYHDHTKIIICSQNEEYL [PLK2] |  |  | 2.5 ± 1.1 | 2.21 ± 0.42 |
| GTIRPVRCPSSSLHMSQRERTWPP [C22orf15] |  |  | 3.77 ± 0.098 | 3.75 ± 0.17 |
| GTNEALLRQLRELEEQFALEAGGY [PRPH] |  |  | 4.07 ± 0.24 | 3.92 ± 0.26 |
| GTQPRATKHKCRQLTKASLKPRGC [SPACA9] |  |  | 3.81 ± 0.29 | 3.95 ± 0.19 |
| GVCQSMCHDKYTKIFNDFKDRMKS [ZMYND11] |  |  | 3.11 ± 0.032 | 2.92 ± 0.23 |

| Sequence | protein stability index [1] | protein stability index [2] | protein stability index [3] | protein stability index [4] |
| --- | --- | --- | --- | --- |
| GVVDSEDLPLNISREMLQQSKILK [HSP90AB1] |  |  | 4.09 ± 0.22 | 4.14 ± 0.28 |
| GVVHPSNEVLSSDILPRWAIIGWL [INTS3] |  |  | 2.13 ± 0.41 | 2.18 ± 0.45 |
| GWFWVCPGGGDICMYRHALPPGFV [ZC3H15] |  |  | 2.83 ± 2.2 | 2.57 ± 0.8 |
| GYQHVDLQNFSSSWSDGMAFCALV [SMTNL2] |  |  | 2.16 ± 0.49 | 2.01 ± 0.15 |
| HALGSPEKVKACQGQYETIERLRS [TBC1D10A] |  |  | 4.03 ± 0.21 | 3.88 ± 0.3 |
| HDVRLNGSAAGHVLVKDNGLGCKD [TENT5C] |  |  | 4.88 ± 0.38 | 4.92 ± 0.16 |
| HEEEPLGTAGPLALARDLLSETAD [GMPPB] |  |  | 5.38 ± 0.42 | 5.18 ± 0.15 |
| HELMLRFKDEYKSENIKLREENEK [CCDC89] |  |  | 5.21 ± 0.36 | 5.29 ± 0.13 |
| HEVKCQGKPLAGIYRKREEKRNAG [KMT5A] |  |  | 4.64 ± 0.55 | 5.06 ± 0.1 |
| HFDATRGWLLTSGTDKVIKLWDMT [WDFY2] |  |  | 2.43 ± 0.3 | 2.78 ± 0.41 |
| HGQENIVRILLRRGVDVSLQGKDA [RIPK4] |  |  | 2.5 ± 0.087 | 3.13 ± 0.24 |
| HLIFSYSVWVLRDFPEDGLKIFTE [VPS39] |  |  | 2.98 ± 0.58 | 3.15 ± 0.54 |
| HLLEAEPLSPIQASSVHLKSESSL |  |  | 4.16 ± 0.1 | 4.14 ± 0.15 |
| HPNSRKSSAGGAKAGQPESRALAL [ZNF8] |  |  | 4.67 ± 0.36 | 4.77 ± 0.16 |
| HRRRSRERGPYRTRKHAHHCHKRR [CLK3] |  |  | 4.49 ± 0.31 | 4.57 ± 0.25 |
| HRWPPVWYLKEEDHYQRVKREREK [RHOBTB1] |  |  | 3.75 ± 0.34 | 4.03 ± 0.28 |
| HSCVQIKNDVFICGGYNGEVILGD [KLHDC10] |  |  | 1.94 ± 0.27 | 2.62 ± 0.42 |
| HSRVAKPHQREKIDKEIELHRILH [PLK2] |  |  | 3.42 ± 0.4 | 3.44 ± 0.07 |
| HSVLQGFIPLFQKFRLTGFRKTD [TMEM40] | 2.69 ± 0.62 | 2.69 ± 0.43 |  |  |
| HTEVVRDLTFAPDGSLILVSASRD [WSB1] |  |  | 3.45 ± 0.054 | 3.53 ± 0.27 |
| HTKRLYRAVVEAVHRLDLILCNKT [SMG5] |  |  | 2.77 ± 0.36 | 2.82 ± 0.65 |
| HVLEGLFRTDPEAKVKLVFVEDQA [ZSWIM9] |  |  | 2.51 ± 0.19 | 2.74 ± 0.24 |

| Sequence | protein stability index [1] | protein stability index [2] | protein stability index [3] | protein stability index [4] |
| --- | --- | --- | --- | --- |
| HVQKLSQECLKQLAIKKQQHIDNI [TRIM14] |  |  | 3.81 ± 0.36 | 3.75 ± 0.12 |
| HVTDPLIGCKKPVSASGKEMDWAQ [SMG5] |  |  | 3.78 ± 0.18 | 4.04 ± 0.24 |
| HVTVVILFFVPCIFLYARPNSTFP [OR4A15] |  |  | 2.83 ± 0.9 | 2.77 ± 0.51 |
| IAKHLKGRLGKQCRERWHNHLNPE [MYBL2] |  |  | 2.25 ± 0.21 | 2.23 ± 0.13 |
| ICKEVQAEQEPTRKLFEVESVTHH [SPAG8] |  |  | 4.47 ± 0.12 | 4.77 ± 0.07 |
| IDCKFNAESQGCNHEEDAGVRCNT [LOXL2] |  |  | 5.13 ± 0.22 | 5.22 ± 0.1 |
| IDFIGQVHKTKEQFGQDGPISVHC [PTPRD] |  |  | 2.5 ± 0.26 | 2.81 ± 0.22 |
| IDGKGRGVIATKQFSRGDFVVEYH [KMT5A] |  |  | 2.91 ± 0.26 | 3.03 ± 0.35 |
| IDYYTETKILQERAVLGANDPEKN [NSDHL] |  |  | 4.76 ± 0.22 | 5.02 ± 0.46 |
| IEFNPRIGKWFDFKLFFNGRPGIV [DHCR7] |  |  | 2.63 ± 0.44 | 2.91 ± 0.91 |
| IGVILFSSAVYFAEADEPTTHFQS [KCNA4] |  |  | 2.36 ± 0.58 | 2.69 ± 1 |
| IHDLDLTLLNPRMIVDVTPYMNPS [CLCN6] |  |  | 2.29 ± 0.19 | 2.26 ± 0.25 |
| IHLSAPCIYSEVMEALKLQPGLSF [PCMTD1] |  |  | 2.33 ± 0.67 | 2.61 ± 0.34 |
| IIKQLQKGVQQKRPSEAQSVILRR [DENND6A] |  |  | 3.08 ± 0.2 | 2.9 ± 0.14 |
| IKEEENSEEELAAATTSKEQEPIG [MYBL2] |  |  | 5.7 ± 0.31 | 5.72 ± 0.21 |
| IKEVIFMSDKYHDSDEATAARLLF [DCTD] |  |  | 2.57 ± 0.27 | 2.62 ± 0.32 |
| IKRGDILPPEKGREVAKELGLPYY [RHOBTB1] |  |  | 3.2 ± 0.22 | 3.37 ± 0.39 |
| IKTAVNLPLERDAESFLLKSPIAP [CDC25B] |  |  | 3.23 ± 0.24 | 3.14 ± 0.36 |
| ILAIIAKEGDCAPEEKIWEELSVL [MAGEA6] |  |  | 2.44 ± 0.26 | 2.48 ± 0.43 |
| ILGRGLQEYQLPYQRVLPLPIFTP [TCAP] |  |  | 2.25 ± 0.21 | 2.37 ± 0.12 |
| ILHIMVKVVKGHRPELPPVCRARP [RIPK4] |  |  | 3.35 ± 0.92 | 2.4 ± 0.36 |
